A short description of this data set: soluble on expression in E. coli; label from the status in PepcDB or PDB records.
Consider “MLTAATEVLAAADGPGSAESAWAWRDAPIATLVQRIQQLQNERAQAFRRLDQAHRQYLLSGQHYDFPSYRSVVHEVTQAFAAASREVLAVEAELAGPRAQPVLARHVRSLQELEQTRLATVALLQVMGTPGVSEQDPEKLHQLKIKVIKTMEAIGEVLQELRFDAESAE”, for which the “soluble on expression in E. coli” value is “soluble”.

With “MLTKVIEQAKIDHFTKWFERADKIVIVSHVSPDGDAIGSSLGLYHFLDSQEKTVNVIVPNAFPDFLRWMPGSKDILLYDRYKDFADKLIAEADVICCLDFNALKRIDEMADAVAASPARKVMIDHHLYPEEFCKITMSYPKISSTSELIFRLICRMGYFSDISKEGAECIYTGMMTDTGGFTYNSNNREIYFIISELLSKGIDKDDIYRKVYNTYSESRLRLMGYVLSNMVVYSDYNAALISLTKEEQSKFDYIKGDSEGFVNIPLTIKNVCFSCFLREDTEKPMIKISLRSVGTFPCNQLAAEFFNGGGHLNASGGEFFGTIEEAKAVFEQALEKYKPLLTAKSLEHHHHHH”, the “soluble on expression in E. coli” value is “soluble”.

Take “MLTPRFDIQPAVSVILPTFDRAPLLASAIESVVAQNFAEWELIVVDDGSSDETFEIVDGYLNQHANIRYMKHRNRKAALSRNAGIQAAFGRYITFLDSDDLYLPEHLESRLHLLESMPEVRLISGGFVCEGDPWVRDRDDPEKLIHVSECIAGATMFGRRELFLDIGGFRALDYAEDTDLWERAARSHKVLKIDQPVSYIYRRSPGSITRTYKPAKPLEHHHHHH”: the “soluble on expression in E. coli” value is given as “soluble”.

For the sequence “MLTQEQIMNALKHVEDPELHKSVVELNMVRNIQMNGTEVKLEVVLTIQGCPLKAKIQQDIEESLHAIGASKVEVTFGSMTQEERAALTEKLKRNTRTETGMPSMLRPDSGVRFITVTSGKGGVGKSTVTINLATALARMGKKVGILDADIYGFSIPAMMETNKKPTMIDQTAIPVISHGVKIMSMGFFTEGNNPVMWRGPMLNKWIQNFLANTHWGELDYLLLDLPPGTGDVAIDVAAMIPQAKEIIVTTPHNIASFVASRVGVMAKHTKHEILGIVENMAYYEEQDGSKNYLFGKGGGEMLAEQLQTEVIAKIPFAKREENNGSSVYDEDSLVGEVFTSLAEDIIYRGLEHHHHHH”, the “soluble on expression in E. coli” value is on record as “soluble”.

Take “MLTYETWEENETKGALSVLSWAYKEYKSEIVYACSFGVEGMVLLDLINQVNPSAKVVFLDTNVHFQETYELIQKVRERFPSLNIIEKQPKLTLDEQDKLHGDKLWESNPNLCCKIRKILPLEESLANEKAWISGLRREQSETRKHTKFINQDHRFQSIKVCPLIHWTWKEVWRYVYKHSLPYNSLHDIGYPSIGCEKCTLPVGEGGDSRDGRWAGKVKTECGLHYQ”: the “soluble on expression in E. coli” value was “not soluble”.

With “MLVGERLENEPNFYQEIDFLKHLAGINGVPVVHKHFQYEQKRVLVMDKYLENLEQFRKRKEDEKLSPRVVIKLAFRLVSILEHIHRKGVVHQDIKLDNVVFGAKVGNKLDIVLIDYGIAAFTKPKPPRDLVDGALHCTTDFSSSVYASPGLVQGLKGDPVDDLQMLSFMLLWASKYNPFGEDSLESLRKKKEFIAKPSIFTQGDYKFLRPVISKIMEQKRSKRPDYKAISKKCANKDNYFNPDTAVHLGNAYEFF”, the “soluble on expression in E. coli” value is “not soluble”.

For “MLVLRLFNTQKARLSQLPKASNEIVKDFISKLANAAGSRDKLSDCFTHDFQFFGCGYTVNKAPFVEKHLATPNPEPLIPKCSSFNGNDSKISFTASHQDGPRENIVDLVISREEKDSPWRLQSGKITNCP”, the “soluble on expression in E. coli” value is “not soluble”.

As to “MLVVPARLHRWPPEVQDLFGREGPLVLEIGFGDGRFTAELARSRPDWLVLGAEVSAASVLRALRRMRREGLANVRLYHGQGPFALRNLVLPGTLDQVIVNFPDPWPKKRHQERRLLREAFFRRLSTRLKPGGSLLLTTDHEEYFRFALEEAERTGLYRVEVRPPPEAHLRTKYALKWKEAGRAFFHAAFIKLREDPAPWPPLRRYDVAHALLSGELPQDLALEKTPVRLKEGVAVFLEVARGKEGFYVLTHVEEEDLTQDLLLEVRKSARGVYAGVSRFGSPLITEAVKGAVRALVDRLEAHGLEVVQDHT”, the “soluble on expression in E. coli” value is given as “soluble”.

Consider “MLWTENITLRFGGVTALDNVSVEVRRGEILGIIGPNGAGKTSLLNVITGVYKPQRGRVYFKGRDITGLKPHQRITLGLSRTFQHSELFHSMTVLENIMVRLHPWTRGSILEKALWAFRAKRWEVEARERAEHVIDLLDLHEHRHSPIGALPPGIQKKVDLAGALAQNPEVVLMDEPMAGLSKEEKEDIVRAIIETSETMHTTMVLIEHDMEVVTDVCDRVVVMDYGKVIFEGPPHEAVADERVRKAYLGE”, for which the “soluble on expression in E. coli” value is “soluble”.

Take “MLYIFTPTFNRGYRLSYLYDSLCNQTNKNFIWLIVDDGSEDSTKEIVSNYIKENKVSIVYLYKRNGGKHSAYNLAMRYMQPSDYHVCVDSDDWLLEDAVEIIFKDLESLTLSNRYVGLVYPRYSLNQGNNWLNPKILEVNIPDLKYKYHLKIETCIVINNAYLVDFEFPCFEGENFLSEEIMYIYLSKKGYFCPQNRKIYCFDYLEDGLTSNIFKLWRKNFKGTIFSLENSYMYVMSFPNIFDRWWSAIKIKMNIQALKMTTLGVIPTLKSEEAGWKILLGFSYLWKVARFKKSELEHHHHHH”: the “soluble on expression in E. coli” value was “soluble”.

In the case of “MMAVENAVDYPISVRLPSYVVEKIDELVKKRKFRSRSDFIKFAVTFALGQIMMEEARERAKNEPEELEKERKEAWMRLRAGDFSKEDEETLELLKKVDARYKRLGGRS”, the “soluble on expression in E. coli” value is “soluble”.

For “MMEDGAEGEIGDMLSMCNKHPFFDDDDSERFVILYKICTVFDEPVEGKQPSSAVIVYEELAKSGGYCCRPSKMEESYVKVDQVVQEMAKITSKCAIHLSSHALKNTIQIVRTAFSGEYTQNDKDGNVPEGNEVKFDGDETVMKTTVNCEKLVEDINEFMEEDRQMYGALEIQIMEESERNIDGYAYFSFLKFVPCGNIHLRIPPLEGSCTKEVINEVIETIMRNFWNYCGDS”, the “soluble on expression in E. coli” value was “not soluble”.

With “MMEIKRVLKDRLSARVCVIGAGPSGIAAIKNLQEHGITNVTVFEKNNQIGGNWVYDEQNEHSSVYETTHIISSKRWSEFEDFPMPVDYPDYPSHSQLLKYFQSYVEHFHLDRYIRFNTVVQKVHRLDDNTWHVIYEDAQGIHEACYDYLLVANGHHWDPFMPVYPGVFDGEILHSHQYKKASIFKGKRVLVVGGGNSACDVAVEISRVAPGTCISMRRGYHIFPKFIFGKPTDVAVAKIQWMPSWLRQKFISLVIRGLQGRYAKYKLMKPDCGPLEIHPTINSELLYFIRHGKIHPRSGISRFEGNTVHFTDRTQGEFDTIIFATGYQISFPFFDKSCIDFSNSTTIPLYRKMMHPEFENLYFIGLCQPQGCIWPLADYQSKIVARIIAGTLKRPDQLHRKIAKEINKPHHRFKSHMRHALEVDYHIFRKELLEMLGQKHKRLKFYPLEHHHHHH”, the “soluble on expression in E. coli” value is recorded as “soluble”.

Take “MMFLNKVDKRKIALFQLLENAPMLTESKETVMQELELSEFIVNKTVAELNADFIEFGLSEDFQIVSDGIFLTLNESGTETSATLIDCYIKESLRFAMFQDFFFQRFDSVNEFALEHFVSHTLAYKEFKELKKMLENYQITINKEFHLVGNETNLREVTTLVFLQLYQRDFSLYGKKVLEQIRNFELFFSEKVHLNQRAGYAQAKCFHFLAVSLVRTQQQFYVEKKVDSQVLKQLAGDNQQNVFNWLESLQIPEPQRTNEGNYLLLFLIAEEWLQVASAALCQRFAEIQQLNRDLLSYLKIQFQLSEEVLQGFEQKVTIVHFKLFHFPIEANYSYLKMDITYFAETYTEYFSASRQFIQEQKTNPAVWDARRFLFYRYLLLMVDALPLKKVLAPITLCVDFSFGEAYNRMIQKNIEKITEWNIIFKAHVDESVQLILSDIHFVDWPEITQIIWLAPPRPVDWSHFIKTLSALRPHSGEEKKKSS”: the “soluble on expression in E. coli” value is “not soluble”.

As to “MMGEPARLRRLTAEEYLREEATSPVKRELVEGVPYAMAGAGRAHNLIVTNLVLLLGPLARRKGCRLYVADMKLKVGEATFYYPDLMAVCAPPPESPLYEEAPCLVVEVLSPATEGVDRREKLWRYLSLPSLEGYLLVSARERRVELYRKEGDILHQVAEEGEVPLPCLEGSLPVAEVYAGVELEGQEA”, the “soluble on expression in E. coli” value is on record as “soluble”.

Regarding “MMHIAHSAPNHTVEGLYRAHNVWLTTWLRRRLGCPHSAADLAQDTFVKVLGARDTAQIIEPRAFLTTIAKRVLCNHYRRQDLERAYYQALAELPECAAPSEEERAIILETLVELDQLLDGLPALVKRAFLMSQVDGLSHGQIAAELDISIATVKRHLNKAALRCYFAL”, the “soluble on expression in E. coli” value is on record as “not soluble”.

Regarding “MMICGVFCMYKERKRMTKKELALEYHKKGYNCTQAVACAFCGEFGVSEEEMYKIAEGFGLGMGMMDTCGALTGLFMLIGMKNSGGVEQAGKTKADTYKKTREYAAKFKEINGSVYCKELKGVETGKILAPCDKCILDAVELAEQFLKEN”, the “soluble on expression in E. coli” value is “not soluble”.

With “MMIENDETLNELHNDEEFCIKEQLSHVDHDEKVHVDSIVKKSECAHNYEQREKRDRSSSVDSKPEIKKICRCHESNCSKSSKYEKSSCGSKNKSGDSLSTASTGINECLNNSKNLNEPFKFFIGGIPQYITSKDTHELNGKRVDVREENNTTPSDIQRKIFVGGLNYYWTKDTLESYFSTFGEIDVVQIVLDSSGRSRCFGFVVFSNENSVAKVLKHKRHKIYDKMVEVRKAEPKKPKMSIKRSNNKNFSKFPPHIPFMAPFPPCNKETMAQWANFMYNTCGVPFLFNQRFQNLPDFYSNYNYYQNSLENIQQSEYNN”, the “soluble on expression in E. coli” value is reported as “not soluble”.

Take “MMIMLDPFSEKAKELLKGFGSINDFMDAIPKIVSVDDVIERIRVVKNEKLIDKFLDQDNVMDLAQFYALLGALSYSPYGIELELVKKANLIIYSERLKRKKEIKPEEISIDVSTAIEFPTEDVRKIERVYGKIPEYTMKISDFLDLVPDEKLANYYIYEGRVYLKREDLIRIWSKAFERNVERGVNMLYEIRDELPEFYRKVLGEIQAFAEEEFGRKFGEIQGGKLRPEFFPPCIKNALKGVPQGIRNYAITVLLTSFLSYARICPNPPRRNVRVKDCIKDIRVITEEILPIIIEAANRCSPPLFEDQPNEIKNIWYHLGFGYTANPSLEDSGNSTWYFPPNCEKIRANAPQLCTPDKHCKYIRNPLTYYLRRLYLEGRRNAPKRGNKRGKKELLHQLEHHHHHH”: the “soluble on expression in E. coli” value is on record as “soluble”.

For the sequence “MMINVHSYESMGTFDGPGLRLVVFLQGCNFRCLYCANPDTIAGKGGTPTPPEEIVRMAMSQRPFFGKRGGITFSGGEPTFQAKALVPLVRELKERGIHVCLDSNGGLWNEDVEELFKLTDLVLLDIKEFNPNRHQTLTGRSNEQTIRTAAWLEEQGKPFWLRYVLVPGYSDFEEDIRALGEALGKYKMIQRVEILPYHTLGVHKYEAMGQEYKMKGVKENTPEQLEKAAEVFKEYFTTVVVNLEHHHHHH”, the “soluble on expression in E. coli” value is given as “soluble”.

On to “MMKKFIAPLLALLVSGCQIDPYTHAPTLTSTDWYDVGMEDAISGSAIKDDDAFSDSQADRGLYLKGYAEGQKKTCQTDFTYARGLSGKSFPASCNNVENASQLHEVWQKGADENASTIRLN”, for which the “soluble on expression in E. coli” value was “soluble”.

Take “MMKTRGFELITDYTDENLLPKRETAHAAGYDLKVAERTEISAGAIVLVPTGVKAYMQVGEVLYLFDRSSNPRKKGLVLINSVGVIDGDYYNNPNNEGHIFAQMKNMTDQTVVLEAGERVVQGVFMPFLLIDGDKATGTRTGGFGSTGG”: the “soluble on expression in E. coli” value is “soluble”.

Regarding “MMLAGCGPIEPDYPNNKYTLTWYCTSDDGTCERVVELRRYDRASIQNNDLTIWDSQDPGGAIEALIVYSDSLPQHCDRIFYLVFFGHEIEEPRYCGNHYAFEIELSIPDEDPATSSRWVISAAPLD”, the “soluble on expression in E. coli” value was “not soluble”.
